B1: ZNF449 (parent)
chain: HTGERPYECTVCKKRFTRRSHLIG

Variants of: B1
Assay: protein stability index of a GFP-peptide fusion (GPS, HEK-293T) (PSI 1-6); higher = more stable
Conditions: c terminus: a fixed tail appended
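Note: lentivirally expressed fusions sorted by FACS into six bins by GFP to DsRed ratio, PSI derived from sequencing read proportions per bin multiplied by bin number.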

Row | Variant | protein stability index
1 | HTGERLYECTVCKKRFTRRSHLIG | 1.58
2 | HTGERTYECTVCKKRFTRRSHLIG | 2.58
3 | HTGERMYECTVCKKRFTRRSHLIG | 2.74
4 | HTGERWYECTVCKKRFTRRSHLIG | 2.38
5 | HTGERHYECTVCKKRFTRRSHLIG | 2.64
6 | HTGERDYECTVCKKRFTRRSHLIG | 2.52
7 | HTGERVYECTVCKKRFTRRSHLIG | 3.36
8 | HTGEREYECTVCKKRFTRRSHLIG | 2.34
9 | HTGERIYECTVCKKRFTRRSHLIG | 2.08
10 | HTGERGYECTVCKKRFTRRSHLIG | 2.77
11 | HTGERQYECTVCKKRFTRRSHLIG | 3.29
12 | HTGERFYECTVCKKRFTRRSHLIG | 1.75
13 | HTGERKYECTVCKKRFTRRSHLIG | 2.02
14 | HTGERNYECTVCKKRFTRRSHLIG | 2.3
15 | HTGERYYECTVCKKRFTRRSHLIG | 2.22
16 | HTGERAYECTVCKKRFTRRSHLIG | 2.67
17 | HTGERRYECTVCKKRFTRRSHLIG | 1.82
18 | HTGERPYPCTVCKKRFTRRSHLIG | 1.94
19 | HTGERPYSCTVCKKRFTRRSHLIG | 2.32
20 | HTGERPYFCTVCKKRFTRRSHLIG | 1.84
21 | HTGERPYQCTVCKKRFTRRSHLIG | 2.76
22 | HTGERPYCCTVCKKRFTRRSHLIG | 2.38
23 | HTGERPYRCTVCKKRFTRRSHLIG | 2.22
24 | HTGERPYYCTVCKKRFTRRSHLIG | 2.15

Row | Variant | protein stability index
25 | HTGERPYICTVCKKRFTRRSHLIG | 2.74
26 | HTGERPYGCTVCKKRFTRRSHLIG | 1.84
27 | HTGERPYNCTVCKKRFTRRSHLIG | 1.79
28 | HTGERPYVCTVCKKRFTRRSHLIG | 2.35
29 | HTGERPYWCTVCKKRFTRRSHLIG | 2.23
30 | HTGERPYKCTVCKKRFTRRSHLIG | 1.96
31 | HTGERPYHCTVCKKRFTRRSHLIG | 2.12
32 | HTGERPYTCTVCKKRFTRRSHLIG | 2
33 | HTGERPYACTVCKKRFTRRSHLIG | 1.77
34 | HTGERPYLCTVCKKRFTRRSHLIG | 2.77
35 | HTGERPYDCTVCKKRFTRRSHLIG | 2.72
36 | HTGERPYECTVCKMRFTRRSHLIG | 1.61
37 | HTGERPYECTVCKERFTRRSHLIG | 1.73
38 | HTGERPYECTVCKHRFTRRSHLIG | 2.58
39 | HTGERPYECTVCKQRFTRRSHLIG | 1.75
40 | HTGERPYECTVCKPRFTRRSHLIG | 1.97
41 | HTGERPYECTVCKCRFTRRSHLIG | 2.01
42 | HTGERPYECTVCKIRFTRRSHLIG | 2.26
43 | HTGERPYECTVCKDRFTRRSHLIG | 2.29
44 | HTGERPYECTVCKARFTRRSHLIG | 1.89
45 | HTGERPYECTVCKLRFTRRSHLIG | 1.66
46 | HTGERPYECTVCKGRFTRRSHLIG | 1.44
47 | HTGERPYEITVCKKRFTRRSHLIG | 3.17
48 | HTGERPYEGTVCKKRFTRRSHLIG | 3.94

Row | Variant | protein stability index
49 | HTGERPYELTVCKKRFTRRSHLIG | 2.83
50 | HTGERPYEHTVCKKRFTRRSHLIG | 3.03
51 | HTGERPYERTVCKKRFTRRSHLIG | 3.99
52 | HTGERPYEMTVCKKRFTRRSHLIG | 2.8
53 | HTGERPYEFTVCKKRFTRRSHLIG | 2.39
54 | HTGERPYESTVCKKRFTRRSHLIG | 3.69
55 | HTGERPYEKTVCKKRFTRRSHLIG | 3.97
56 | HTGERPYENTVCKKRFTRRSHLIG | 3.63
57 | HTGERPYEVTVCKKRFTRRSHLIG | 3.01
58 | HTGERPYEATVCKKRFTRRSHLIG | 3.85
59 | HTGERPYEWTVCKKRFTRRSHLIG | 3.62
60 | HTGERPYEYTVCKKRFTRRSHLIG | 3.67
61 | HTGERPYEETVCKKRFTRRSHLIG | 3.31
62 | HTGERPYEDTVCKKRFTRRSHLIG | 4.05
63 | HTGERPYETTVCKKRFTRRSHLIG | 3.14
64 | HTGERPYEQTVCKKRFTRRSHLIG | 3.64
65 | HTGERPYEPTVCKKRFTRRSHLIG | 3.7
66 | HTRERPYECTVCKKRFTRRSHLIG | 1.73
67 | HTVERPYECTVCKKRFTRRSHLIG | 1.82
68 | HTSERPYECTVCKKRFTRRSHLIG | 2.33
69 | HTYERPYECTVCKKRFTRRSHLIG | 1.9
70 | HTTERPYECTVCKKRFTRRSHLIG | 2.12
71 | HTWERPYECTVCKKRFTRRSHLIG | 2.43
72 | HTGERPYECTVCIKRFTRRSHLIG | 2.06

Row | Variant | protein stability index
73 | HTGERPYECTVCPKRFTRRSHLIG | 2.86
74 | HTGERPYECTVCGKRFTRRSHLIG | 1.52
75 | HTGERPYECTVCAKRFTRRSHLIG | 1.63
76 | HTGERPYECTVCRKRFTRRSHLIG | 2.31
77 | HTGERPYECTVCVKRFTRRSHLIG | 3.25
78 | HTGERPYECTVCTKRFTRRSHLIG | 2.33
79 | HTGERPYECTVCNKRFTRRSHLIG | 1.78
80 | HTGERPYECTVCLKRFTRRSHLIG | 2.09
81 | HTGERPYECTVCMKRFTRRSHLIG | 1.62
82 | HTGERPYECTVCEKRFTRRSHLIG | 2.42
83 | HTGERPYECTVCQKRFTRRSHLIG | 2
84 | HTGERPYECTVCWKRFTRRSHLIG | 2.62
85 | HTGERPYECTVCCKRFTRRSHLIG | 1.06
86 | HTGERPYECTVCYKRFTRRSHLIG | 2.47
87 | HTGERPYECTVCDKRFTRRSHLIG | 2.91
88 | HTGERPYECTVCFKRFTRRSHLIG | 2
89 | HTGERPYECTCCKKRFTRRSHLIG | 2.29
90 | HTGERPYECTSCKKRFTRRSHLIG | 2.58
91 | HTGERPYECTFCKKRFTRRSHLIG | 1.47
92 | HTGERPYECTMCKKRFTRRSHLIG | 1.91
93 | HTGERPYECTECKKRFTRRSHLIG | 3.06
94 | HTGERPYECTGCKKRFTRRSHLIG | 2.99
95 | HTGERPYECTWCKKRFTRRSHLIG | 2.6
96 | HTGERPYECTICKKRFTRRSHLIG | 1.58

Row | Variant | protein stability index
97 | HTGERPYECTHCKKRFTRRSHLIG | 2.99
98 | HTGERPYECTYCKKRFTRRSHLIG | 2.64
99 | HTGERPYECTNCKKRFTRRSHLIG | 2.8
100 | HTGERPYECTQCKKRFTRRSHLIG | 3.12
101 | HTGERPYECTTCKKRFTRRSHLIG | 3.47
102 | HTGERPYECTDCKKRFTRRSHLIG | 2.44
103 | HTGERPYECTPCKKRFTRRSHLIG | 2.58
104 | HTGERPYECTLCKKRFTRRSHLIG | 2.08
105 | HTGERPYECTKCKKRFTRRSHLIG | 3.82
106 | HTGERPYECTRCKKRFTRRSHLIG | 2.39
107 | HTGEEPYECTVCKKRFTRRSHLIG | 2.33
108 | HTGEIPYECTVCKKRFTRRSHLIG | 2.19
109 | HTGETPYECTVCKKRFTRRSHLIG | 3
110 | HTGELPYECTVCKKRFTRRSHLIG | 2.09
111 | HTGEYPYECTVCKKRFTRRSHLIG | 2.82
112 | HTGEHPYECTVCKKRFTRRSHLIG | 2.67
113 | HTGEWPYECTVCKKRFTRRSHLIG | 2
114 | HTGEAPYECTVCKKRFTRRSHLIG | 1.96
115 | HTGEPPYECTVCKKRFTRRSHLIG | 2.01
116 | HTGEFPYECTVCKKRFTRRSHLIG | 1.76
117 | HTGEMPYECTVCKKRFTRRSHLIG | 2.24
118 | HTGEQPYECTVCKKRFTRRSHLIG | 2.23
119 | HTGENPYECTVCKKRFTRRSHLIG | 1.64
120 | HTGEKPYECTVCKKRFTRRSHLIG | 1.99

Row | Variant | protein stability index
121 | HTGEVPYECTVCKKRFTRRSHLIG | 2.07
122 | HTGECPYECTVCKKRFTRRSHLIG | 3.5
123 | HTGESPYECTVCKKRFTRRSHLIG | 2.7
124 | HTGEGPYECTVCKKRFTRRSHLIG | 2.24
125 | HTGERPYECTVDKKRFTRRSHLIG | 3.99
126 | HTGERPYECTVRKKRFTRRSHLIG | 3.79
127 | HTGERPYECTVFKKRFTRRSHLIG | 3.01
128 | HTGERPYECTVPKKRFTRRSHLIG | 3.06
129 | HTGERPYECTVYKKRFTRRSHLIG | 3.2
130 | HTGERPYECTVKKKRFTRRSHLIG | 3.98
131 | HTGERPYECTVWKKRFTRRSHLIG | 1.86
132 | HTGERPYECTVNKKRFTRRSHLIG | 3.42
133 | HTGERPYECTVSKKRFTRRSHLIG | 3.39
134 | HTGERPYECTVHKKRFTRRSHLIG | 3.73
135 | HTGERPYECTVVKKRFTRRSHLIG | 2.76
136 | HTGERPYECTVMKKRFTRRSHLIG | 4.64
137 | HTGERPYECTVLKKRFTRRSHLIG | 1.55
138 | HTGERPYECTVIKKRFTRRSHLIG | 3.31
139 | HTGERPCECTVCKKRFTRRSHLIG | 3.74
140 | HTGERPHECTVCKKRFTRRSHLIG | 2.06
141 | HTGERPAECTVCKKRFTRRSHLIG | 2.8
142 | HTGERPMECTVCKKRFTRRSHLIG | 2.11
143 | HTGERPKECTVCKKRFTRRSHLIG | 2.44
144 | HTGERPRECTVCKKRFTRRSHLIG | 2.12

Row | Variant | protein stability index
145 | HTGERPPECTVCKKRFTRRSHLIG | 2.07
146 | HTGERPIECTVCKKRFTRRSHLIG | 2.62
147 | HTGERPWECTVCKKRFTRRSHLIG | 1.4
148 | HTGERPSECTVCKKRFTRRSHLIG | 2.28
149 | HTGERPEECTVCKKRFTRRSHLIG | 2.88
150 | HTGERPFECTVCKKRFTRRSHLIG | 1.44
151 | HTGERPTECTVCKKRFTRRSHLIG | 2.71
152 | HTGERPGECTVCKKRFTRRSHLIG | 2.01
153 | HTGERPLECTVCKKRFTRRSHLIG | 3.39
154 | HTGERPDECTVCKKRFTRRSHLIG | 2.6
155 | HTGERPQECTVCKKRFTRRSHLIG | 2.21
156 | HTGERPYECCVCKKRFTRRSHLIG | 2.54
157 | HTGERPYECAVCKKRFTRRSHLIG | 2.42
158 | HTGERPYECQVCKKRFTRRSHLIG | 1.36
159 | HTGERPYECIVCKKRFTRRSHLIG | 3.07
160 | HTGERPYECDVCKKRFTRRSHLIG | 1.97
161 | HTGERPYECFVCKKRFTRRSHLIG | 2.88
162 | HTGERPYECNVCKKRFTRRSHLIG | 2.17
163 | HTGERPYECLVCKKRFTRRSHLIG | 2.37
164 | HTGERPYECMVCKKRFTRRSHLIG | 2.51
165 | HTGERPYECPVCKKRFTRRSHLIG | 1.82
166 | HTGERPYECYVCKKRFTRRSHLIG | 3.04
167 | HTGERPYECWVCKKRFTRRSHLIG | 1.3
168 | HTGERPYECVVCKKRFTRRSHLIG | 1.39

Row | Variant | protein stability index
169 | HTGERPYECSVCKKRFTRRSHLIG | 2.52
170 | HTGSRPYECTVCKKRFTRRSHLIG | 2.53
171 | HTGQRPYECTVCKKRFTRRSHLIG | 2.66
172 | HTGKRPYECTVCKKRFTRRSHLIG | 1.7
173 | HTGCRPYECTVCKKRFTRRSHLIG | 2.26
174 | HTGDRPYECTVCKKRFTRRSHLIG | 1.82
175 | HTGMRPYECTVCKKRFTRRSHLIG | 2.24
176 | HTGPRPYECTVCKKRFTRRSHLIG | 2.04
177 | HTGVRPYECTVCKKRFTRRSHLIG | 2.02
178 | HTGNRPYECTVCKKRFTRRSHLIG | 2.15
179 | HTGTRPYECTVCKKRFTRRSHLIG | 2.76
180 | HTGHRPYECTVCKKRFTRRSHLIG | 2.17
181 | HTGWRPYECTVCKKRFTRRSHLIG | 1.8
182 | HTGYRPYECTVCKKRFTRRSHLIG | 1.58
183 | HTGGRPYECTVCKKRFTRRSHLIG | 1.55
184 | HTGLRPYECTVCKKRFTRRSHLIG | 1.5
185 | HTGRRPYECTVCKKRFTRRSHLIG | 1.96
186 | HTGFRPYECTVCKKRFTRRSHLIG | 1.9
187 | HTGIRPYECTVCKKRFTRRSHLIG | 1.66
188 | HTGARPYECTVCKKRFTRRSHLIG | 1.42
